Assay results published in patent publication US6906176B2, “Enterokinase cleavage sequences” (Dyax Corp., priority 2000, dated 2005).
Marks after values point to notes of the source that are not given here.

Experiments:
Type in all cases: biochemical
[1] = biological target: T1, recombinant light chain enterokinase (Bos taurus, UniProt P98072); assay: Cleavage site test: digestion of synthetic test peptides to completion, HPLC and mass spectroscopy; conditions: for extent of enterokinase digestion: 36-48 hrs with 20U enterokinase, HPLC; for recovered product, product peak 1 / recovered product, product peak 2: 60 to 100 μg peptide digested to completion (36-48 hrs) with 20U enterokinase, reverse phase HPLC, electrospray MS
T1 construct: enterokinase cleavage using 30 nM recombinant light chain enterokinase (Novagen); purchased Novagen, Madison, Wis
T1 sequence (P98072 801-1035 limits assumed): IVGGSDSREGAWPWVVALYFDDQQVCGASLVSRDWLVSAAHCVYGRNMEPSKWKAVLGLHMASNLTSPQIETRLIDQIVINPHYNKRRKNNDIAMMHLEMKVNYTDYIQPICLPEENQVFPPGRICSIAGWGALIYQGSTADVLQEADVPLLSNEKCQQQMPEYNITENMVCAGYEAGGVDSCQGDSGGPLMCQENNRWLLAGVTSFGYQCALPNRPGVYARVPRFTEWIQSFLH
Method: To further test the predicted cleavage site as well as the rates and extent of cleavage, seven test peptides shown in Table 6 were chemically synthesized, contacted with enterokinase, and analyzed by HPLC and mass spectrometric analysis.
To test the predicted cleavage site, i.e., following the acid-base dipeptide motif, 60 to 100 μg of each test peptide was digested to completion (36-48 hrs) with 20U of recombinant light chain enterokinase (Novagen) and analyzed by reverse phase HPLC. Product peaks were eluted with a water/acetonitrile (H2O/ACN) gradient and identified by electrospray mass spectroscopy.
“% ACN” estimates the position in the H2O/Acetonitrile gradient at which the indicated cleavage fragment eluted. The expected product peaks for GDDDDK (residue 1-6 SEQ ID NO:197) and NKAKDR (residues 1-6, SEQ ID NO:201) were not detected by HPLC, but the cleavage site could be determined from analyzing the alternate product peak, i.e., the peptide to the C-terminal side of the cleavage site.

[2] = biological target: T1, recombinant light chain enterokinase; assay: Relative rate of cleavage of synthetic peptides by HPLC; conditions: about 500 μM peptide; for cleavage rate compared with the other peptides (in words): 50 nM enterokinase; for Cleavage Rate: 50 nM recombinant light chain enterokinase
Method: Peptides were digested with enterokinase and aliquots tested at timed intervals by HPLC to quantitate the extent of cleavage. For each test peptide, about 500 μM of peptide were digested with 50 nM of recombinant light chain enterokinase. The seven synthetic peptides were compared with a commercially available standard EK cleavage substrate, GDDDDK-β-naphthylamine (GDDDDK-βNA, SEQ ID NO:203; from BACHEM, King of Prussia, Pa.), having a fluorescent leaving group that increases in fluorescence when it is cleaved.

enterokinase = biological target: T2, enterokinase (Bos taurus, UniProt P98072); assay: Substrate competition with reference peptide GDDDDK-βNA; conditions: for reference peptide rate (Vb): rate of reference peptide GDDDDK-βNA 250 μM in competition with the test peptide 250 μM; for ratio (Va/Vb): test peptide cleavage rate to reference peptide cleavage rate, 250 μM each; for ratio kcat/Km, times greater than that of the reference peptide: tested in competition at 250 μM
T2 construct: provide a substrate specifically recognized and cleaved by recombinant light chain enterokinase
T2 sequence (P98072 801-1035 limits assumed): as above
Method: Rates of substrate hydrolysis depends on several factors, namely, concentration of enzyme and substrate, Km (Michaelis constant) values, and kcat (catalytic rate constant) values. One way to compare the relative efficiencies with which a protease hydrolyses two substrates (a and b) is to simultaneously incubate both substrates in a single reaction with the enzyme and measure the rates of product formation for each (Va and Vb). If the total product formation is low (<10%), the starting concentrations of the two competing substrates are the same, and the reaction is performed at steady-state: Va/Vb=(kcat/Km)a/(kcat/Km)b Relative ratios of kcat/Km can be determined from relative rates of substrate hydrolysis.
To compare the relative efficiency of hydrolysis by enterokinase, reference peptide (GDDDDK-βNA, 250 μM, SEQ ID NO:203) was incubated simultaneously with one of the test peptides (250 μM), treated with enterokinase, and the relative rate of product formation measured. The products were quantitated by HPLC and initial cleavage rates calculated.

[3] = biological target: T1, recombinant light chain enterokinase; assay: Relative rate of cleavage of synthetic peptides by HPLC; conditions: relative to GDDDDK-βNA; peptides tested individually at 500 μM
[4] = biological target: T1, recombinant light chain enterokinase; assay: Phage ELISA kinetics of enterokinase cleavage of phage isolates; conditions: streptavidin-bound phage, 30 nM or 130 nM enterokinase, 30 minutes
Method: FIG. 1 and FIG. 2 show the time course of enterokinase cleavage of phage isolates from five rounds of screening a substrate phage library. The tested isolates were those having recurring sequences among 90 sequenced isolates. The isolates are tested in comparison with an isolate (5-H11) containing the known enterokinase cleavage sequence DDDDK and an unselected phage displaying a polypeptide not recognized by enterokinase.
Phage displaying each of the sequences shown in Table 5 were tested individually for kinetics of enterokinase cleavage using a phage ELISA. Streptavidin-bound phage were treated with either 30 nM or 130 nM enterokinase for 30 minutes. The time courses of phage release are shown in FIG. 1 (release at 30 nM EK) and FIG. 2 (release at 130 nM EK). Phage from the unselected substrate library were used as a control, i.e., isolate 5-F08. (SEQ ID NO:196).

AVLSNVMFT (AVLSNVMFI; negative control in EK cleavage experiment) [AVLSNVMFII, negative control test peptide, reference compound]
extent of enterokinase digestion [1]: not cleaved at all | extent of enterokinase digestion ([1]; listed as negative control peptide): No cleavage

DINDDRSLF (synthetic enterokinase cleavage sequence)
recovered product, product peak 1 [1]: DINDDR | recovered product, product peak 2 [1]: SLF | cleavage rate compared with the other peptides (in words) [2]: cleaved significantly more rapidly than the two control peptides | Cleavage Rate [2]: 1/43 | reference peptide rate (Vb) (enterokinase): 0.006 | ratio (Va/Vb) (enterokinase): 30 | ratio kcat/Km, times greater than that of the reference peptide (enterokinase): 30 | rate relative to standard substrate [3]: 3.1

DINDDRSLFSESS (synthetic enterokinase cleavage sequence) [Isolate 5-H04, round 5 phage isolate]
enterokinase cleavage rate of phage isolate (phage release) [4]: most readily cut

GDDDDK-β-naphthylamine [GDDDDK-βNA, reference compound]
cleavage rate compared with the other peptides (in words) [2]: cleaved at nearly equal rates and more rapidly than the remaining three peptides tested | Cleavage Rate [2]: 0.46 nmol/min | rate relative to standard substrate [3]: (1.0)

GDDDDKIYV (natural enterokinase cleavage sequence) [reference compound]
recovered product, product peak 2 [1]: IYV | cleavage rate compared with the other peptides (in words) [2]: cleaved at nearly equal rates and more rapidly than the remaining three peptides tested | Cleavage Rate [2]: 0.34 nmol/min | reference peptide rate (Vb) (enterokinase): 0.027 | ratio (Va/Vb) (enterokinase): 1.0 | rate relative to standard substrate [3]: 0.7

GNYTDRMFI (synthetic enterokinase cleavage sequence)
recovered product, product peak 1 [1]: GNYTDR | recovered product, product peak 2 [1]: MET | cleavage rate compared with the other peptides (in words) [2]: cleaved significantly more rapidly than the two control peptides | Cleavage Rate [2]: 0.81 nmol/min | reference peptide rate (Vb) (enterokinase): 0.011 | ratio (Va/Vb) (enterokinase): 3.5 | ratio kcat/Km, times greater than that of the reference peptide (enterokinase): 3.5 | rate relative to standard substrate [3]: 1.8

GNYTDRRFI (synthetic enterokinase cleavage sequence)
recovered product, product peak 1 [1]: GNYTDR | recovered product, product peak 2 [1]: RFI | Cleavage Rate [2]: 0.18 nmol/min | rate relative to standard substrate [3]: 0.4

GNYTDRYFI (commercial synthetic enterokinase cleavage substrate)
recovered product, product peak 1 [1]: GNYTDR | recovered product, product peak 2 [1]: YFI | Cleavage Rate [2]: 0.24 nmol/min | rate relative to standard substrate [3]: 0.5

MGDDDDKIYVYKT (synthetic enterokinase cleavage sequence) [Isolate 5-H11, reference compound]
enterokinase cleavage rate of phage isolate (phage release) [4]: slower than for at least three of the other isolates

NKAKDRMFI (synthetic enterokinase cleavage sequence)
recovered product, product peak 2 [1]: MFI | Cleavage Rate [2]: ~0.26* nmole/min. | rate relative to standard substrate [3]: 0.6
